In the domain aggregation screens of Martell et al. (2025):

Assay: soluble fraction after stress (log2 fold change); higher = more stays soluble; pooled small domains, quantitative proteomics
Conditions: stress: pH 4
In short: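 After pH 4 stress, pooled custom libraries of small protein domains were quantified with high-throughput quantitative proteomics. Aggregation propensity is taken from the fold change in each domain's soluble amount following the acid stress. The scale is log2, where higher values mean more stayed soluble.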

Row | Sequence | soluble fraction (log2)
1 | HMPVTKSARQSRIGELIAREPVRSQSELAARLADDGIVVSQGTLSKDLLELGAVRVRTSSGELAYALL | -0.258
2 | HMQKFLEATGENRDAAVENALEQLGLERDDVSVEVLEIGKKGFLGIGATPARVRVTYEAPDI | -1.51
3 | HMENTFNENLRRIRKEKKITQEQLAEFVGVSPQAVSKWEMNSFPDASLLPKIAEKLEVSIDELFGLK | -0.225
4 | HMTSVAGIERFLASGAIKGMGAATAKLIVEHFGADTLNMLDMYPERLTEIKGIGPKKATAIIEGYRELS | -0.595
5 | HMNVNFVQANLANLPNIQAIYQKGNEMLNDMKRGEAREIDEAYSRVDNGVGTEKDFKVLLSFRDKIIAAMQ | ≥ 0.43
6 | HMINLTKVGNFISIIKLQQIWTIDELLKKVDINYDELLYLLTILSDIYSKNGEYFFDFDIDAENNKILFNN | -0.3
7 | HMNDEQFAIAKNDLLLSLYDGKEVNNSAAEYIIAWESLEKSPSDYISSQLKNTAESIIKISFD | 0.0518
8 | HMLAIELDDKPGSLLRALEIFAKRNLNIEYMYAFTEKRGDKAVMIFKFSDIETAKKSLLEEGFN | -1.13
9 | HMRKIKDVLRLKLHAGLSHERVAASLNISKGVVAKYTSLAAAAGLDWPTVERLSEAALERRLV | 0.22
10 | HMRIVSGRESMLGRTVVVADWAGERGHVVVDGERWNAVASTPLAAGRRARIVGIDGLTLSVSPDDKP | 0.0452
11 | HMARGATELPYSQLLDRVEAGEITTATTQGNTLLSTARDGKRYITYLPLDTMDEVVPRLDAANVEVKTER | -0.123
12 | HMSGEITVPNLIGVEAIQAKTLLIQAGFLIKEFYDLDSTQPAGVVIRQAPEAGTTQTIGKSVTITINKQ | 0.106
13 | HMVQYVDFVKRMIEELPWWHRRMLELKYLDGLTYEEIADELQVPVGTVKGTLHRAKELFQEILKNN | -1.71
14 | HMDAKIEYTMSDLIENRLINSDDASMRREKLSEILKIGYGNGKKTLHKLNSFGITREEFEEAMKEVNSH | -0.0624
15 | HMDTGPISGQVEADRVEVHGHLDGKISAQNVVVGQTGVVKGDIEFGENLRTEEGADIEGYIK | 0.22
16 | HMDKAALGQKLRQARLDKGYTQQSLSEKADIGEVYLSEIERGLKMPSMNLFIKLITALDISADYILR | -1
17 | HMSGGNTSAFKGKLNYEYRGNDTIITGSTYPVKELIKKAGGRWDPGSSAWIIKGRHVSDNEIF | -0.317
18 | HMEKYNIIVDNEDNFRLDKIIALNMKDLSRTMIQEMINRGLVSVNGKITKASYKTKLNDQIEIMIED | -0.171
19 | HMNEISFYPNPAKESLTVKGLSEITSYSISDINGKLIQYGTTFDRINLEKLTKGFYFLTIGNTISKKLIV | -0.0595
20 | HMHQIFAETVFEDIAFGPRNKGFNEEEVAKQVREAMAFVGLDYDTYAQRSPFQLSGGQMRRVAIAGVVA | -0.874
21 | HMNTLLYAPKVSPNPFTPNADGINDVVNISYKLLRVISAVPISVEVFDLSGRLIKTLYSGVDPLGEY | 0.425
22 | HMTGSLRVTSSPSGAEIYVDEIYRGYTPLTIGSLSTGRHEVRLHLSGYQDYTRTVEIESGSQSSFSVTLT | 0.0547
23 | HMNREEKKALTRRQIIDVATRLFRQHGIHNTDLKTIATEAGVSVVTFYKYFDSKEALIGTIAAEQ | -0.23
24 | HMSTLGIRIKHYRTDSNLTQKELAGLINVKRDALANWETDRALPDVMNLKKLAEVFQVSTDELLQV | -0.225
25 | HMLEQSYYEKTDEIIELHGAKASSLIPVMQDVQAEYRYLPGELLSYIADKLGIPLAKAYSVATFYENFS | -0.951
26 | HMFEQFEVENLQELQQEWGDKFNHNLEMARRAFMNFATPEAVKVLEETGMGNHPELLKVFARIGEVLAED | -1.22

Row | Sequence | soluble fraction (log2)
27 | HMIDAHTALLAKRLEAKGMLPLTDKSSAEEIYAEFGISKKAFKKALGALYKERLVRIGEDGVVWI | 0.0608
28 | HMPMINLYQRLNLPPTASRAEIEAALAQYRSELSTAEIRGVQEWLLVNEVRHRYDAKLRQEQPSFFI | -0.427
29 | HMSHGYVELKAENNDALISALENHTWFENIKLDPETNLVKAILTKPIEAENLNKMLFEKGIILSHLVKRK | -0.286
30 | HMDDFSETLLQYIKEKGGHISLNDKTDAGVIYETFGVSKKTFKKAVGDLYKKRLIVLEDTGIRL | 0.0848
31 | HMDTIAEFIAELTPLEQKVFHVYYEKGQSLKDTAQQAEITSTSARGALDRIRAKGRHFHLAVILFIG | -1.22
32 | HMKIATIELVKEAVKSKLGKFTKRDIMELVPSVGKTTIENMLKQLIGEGYIERHGKGRATFYVK | 0.158
33 | HMPPSVAETLKRLRRHKSLSLEELAQMSGVSRSMLSQIERDATNPTVATLWRITAALGVSIDEVLGV | -0.893
34 | HMSPTSSRAAQARIRKMIESESPLKPISDSQLAARLGEEGISIARRTVAKYREQMNILPASQRRGV | -0.0284
35 | HMEETIVFGQQKAINALSSDAGLSSNELDSYLKKRYKRPLYQLSKSEGAELIQGFQDGSLSKASIMDYVS | 0.346
36 | HMARGTRTRAKLLAAAEVVFARYGYTEASIERITEEAGVGQGTFYLYFASKLEIFEELVDDLNR | -1.07
37 | HMAHILDLMELKQILRLHMDGLSNRRISDTLGIHRNTINSYVSQFKASKHGIEELLKLSDYELAQLFP | -1.39
38 | HMGGQEEALNRLVLRELLGTLEKKERDLIVRRYFYDQTQTKIAEALGISQVQVSRMEKRILKKMREGF | -0.833
39 | HMIQKTHPALEIVKEYFSSQAASEFEAERFFNYYTSNGWLIGGKTKMKDWQAAARNWILNTAK | -0.255
40 | HMLFRGNGFNTLYDKQLRITQQGEFKDGRLWDGKYYRYSKAGELVRIEIYEQGRYAGNGVITDEDKA | -0.0519
41 | HMTSMYYLNKAVKEGNAKAIRQLLSAGININVRKRETSTPLDFAIKYKQTEIADLLRKHGGKTAEELKAEE | 0.0997
42 | HMIPLSDEETILLKLLEATETHLDALIRGSQLSAAKVSVVLMGMEMKRLVKRLPGQMYQRWD | -1.55
43 | HMDDSVVFSLNAKGIRLTGAGKYGEAIALFDKAIAAKPGLSGLYFNRAEARRLSGDLPGARSDLEQALAI | -0.113
44 | HMQDSIYYAQYRINIRNMPSSEGMVISRASVGEALEVLDWQEQWSKVRKQSGVEGYVASRLLTK | -0.64
45 | HMQSYSYYDFQKALQNKTVESVIIEPDKTVPTGTLQIQLKGDTKEELNVSDVTEVEELLQSYDVDYKLRSV | 0.0751
46 | HMQSRRTPASLVERVRQLNGQYQDKEIAELLNREGIKTAHGNEFNAKRIEMIRRHNGISKHSAQ | -0.0944
47 | HMSGENAVLTEGTMVTVRRGGETITATARKETVKQFLSRMDIIPGSREMVGIELMENSVMLTISD | -1.02
48 | HMNKRYKVQVTTDNLKIRKGAGTSYPVVGHITDKGTYTIVETSGKWGKLLSGAGWIYLSYTKK | 0.22
49 | HMTVKRNILQELLKTAFKHPEDFRPSKTFYGETGIGQKRFWALYYGHKAVTQKEYYAVADYLG | 0.202
50 | HMYSYSGSVSNTHDVPVSVVLKDAEGVAIASWDLQAKQSLNISAKDIATSSGTIEITGDGVSETKTVTFTK | -0.229
51 | HMSSDLVDYLVKYVAIVDNQEIEIADSKIGTAELGTTVSEVAKTVGNYYPKATVLSVKITGRNQEIVFEY | -1.8
52 | HMLGYQALASAFRSKVEAGIWPIGEAIPSEARLSKEYGVAVGTIRQAIAELAEEGILIKRHGKSTMVSSG | 0.101

Row | Sequence | soluble fraction (log2)
53 | HMGGGVERLTPRQREVLGYMAEGRSNSWIAGAIGFSEKAVVQHTSKIYDALGLAVDADDHRRVLAVLRYLT | -1.07
54 | HMAEVTLTVREQEVLHLLARGMSNGEMAAHLYVEPTTIKYHLTGLLQKTGSRDRLQAVLWGIRAGMVH | -1.15
55 | HMARDDVIRLVQLSLDHLPAKYADALEWKYVEGLSTKEIAARLELGSEAAESLLARARRAFKNDFQEIFES | -0.47
56 | HMQNEVMPYSTFLSEVNSGNVTKVKIDHEQLTGTLKSGKQFTTYILDAATLPSIVAEKGVEVEVVPP | 0.195
57 | HMIAANMTISQRIAAALAEYGVMSVKDIAQEVLGATDKKDTEKIRVTLTRDHGKRFRTYSDGTWSLKDWRP | 0.234
58 | HMQQPVAYSEFVQSVNDRQIREAQIQGERIVATDNNGNRMTVIWPENDTKLLDELVQNGVLTSIQE | -0.675
59 | HMEEKKYEVGDVVSFNYLYKNSFAEGKVSSLIHSGTITRIIDGRPAPYLINRGTGWLSNDLILT | -0.179
60 | HMQSMSADDWSEKARVLMSAGIIVMGQEAKEKILNLKSLVPLIEAASASNVSMIDSRTFDELLMIIP | -2
61 | HMDTVEFPVQVNGKVRGKITVAADAGKDAIETAALADEKVLAFLDGATPKKVIVVPGKLVNLVVQPG | ≥ 0.43
62 | HMKRELFVEPGMRLEHTPSKTSGPVVSFIEGVIVVIKDQLGSEHRFDPVPGFFRHEGDLVALRSPLL | 0.044
63 | HMQEVKVRLKPDYLGEVLIKVISDKGELKAELFVSNSQVRSLLRAYAVEFQNQIRDQGYNFSEINVYR | -0.518
64 | HMFPELSPEEQLIVEVLSKTNDLQVNLISVKTNIDISRLTSLLFTLEMKGVIKTFAGGMYHLL | -0.712
65 | HMVTVSAVNITPKGHTTVGFTDRSVNPPSNYYLRVGESADGWTVKDADFDDEIATLEKDGVAITLKL | -0.548
66 | HMAREFPGTIIKRGSRGPDVRWIQQHIGVKLVDGVFGRGTERAVKQFQSRRRLKADGIVGRQTWAAIHN | ≥ 0.43
67 | HMTGIELLSHREHQVYDLLTQGRTVTEIGAQLNLAPNTVSTYRARILEKTGTKNDVELALYAQRH | -0.114
68 | HMDKQGGWLTMAEAAEKLGVTHHVIRRLIKEKILPAEQVMRHAPHQIRIVDLESDAVAEALRHR | 0.155
69 | HMKSPAQAAALKKLWAAIKQNEQGEVVEVLFHNRKLTDAGLVHLKGLANLQTLNLYDTKITGAGLVHL | -0.0712
70 | HMQRVSDKVAAQLRVLVQEQQLKPGDRLPAERALAVQLGVSRTALREAIAQLASQGLLTARVGGGTYVAEP | 0.22
71 | HMTMVKYRYLTDGELKEFEEEFKHFLIANGLHSEEWERLNNEDSNKAIEVVALFSNLILDKV | -1.06
72 | HMGKEYERALQQVTKSEIDSDEKLQQQMDALVNSPRISDKEDAWALLLVKKLRNEGVEWDELPDVLSERVQ | -0.856
73 | HMSSQADEEALFKLLAANPYSDEQLEEIRIAIGSGIAYKDIIRIADIGNTAERMKQLRLEFTKDTAN | -0.353
74 | HMLPSWPGVSEFEVARLLRRGRARGSLTLDEVIDVVRDAELTSELIAGIRSSLRAEGIDFEET | -1.85
75 | HMDFDFHALGREIKRKRKDKGWTQEYLAQLLDRTPRSIMYMENRGQHPSLNILFKIATLLEISIDQFFF | 0.158
76 | HMQPSFFEMIRMVESYIKQHFENVGNEFPEIARAIYYGIEEERNIYGTASREDMEELLDEGIPILPVP | -0.937
